# According to PMC11889887, “Blockade of αvβ6 and αvβ8 integrins with a chromogranin A-derived peptide inhibits TGFβ activation in tumors and suppresses tumor growth” (Journal of Experimental & Clinical Cancer Research : CR, 2025):
# Bridge positions count the residues as written; N and C are the ends. Square brackets hold non-standard residues; d marks the D form. Ends that are not written are not given here. Lys(N3) = [N-]=[N+]=NCCCC[C@H](N)C(=O)O; Pra = C#CC[C@H](N)C(=O)O
# B1: peptide 5a (peptide)
# chain: CFETLRGDLRILSILR[Pra]QNL[Lys(N3)]KELQD-NH2
# modifications: triazole 17-21
# Legend:
# [1] = target: T1, biotinylated recombinant human αvβ8 integrin (human, UniProt P06756 31-1048; P26012 43-684, biotinylated (which chain is not stated) | biotinylated (which chain is not stated)); experiment: ELISA; competitive integrin binding assay (taken as Assay 3): plates coated with human latent TGFβ1; various amounts of peptide 5a or 5a-HSA with 10 ng/ml biotinylated αvβ6 or αvβ8 in 20 mM Tris-HCl pH 7.4, 150 mM sodium chloride, 1 mM manganese chloride, 0.05% Tween-20, 0.5% BSA, 1 h; HRP-labeled streptavidin; settings: both partners purified
# T1 construct: integrin alpha-V, human, recombinant; integrin beta-8, human, recombinant; Detected by HRP-labeled streptavidin through the biotin; also called biotinylated-αvβ8; source: bought: Acros CROBiosystems (cat. IT8-H82W5)
# [2] = target: T2, biotinylated recombinant human αvβ6 integrin (human, UniProt P06756 31-1048; P18564 22-709, biotinylated (which chain is not stated) | biotinylated (which chain is not stated)); experiment: as above; settings: both partners purified
# T2 construct: integrin alpha-V, human, recombinant; integrin beta-6, human, recombinant; Detected by HRP-labeled streptavidin through the biotin; also called biotinylated-αvβ6; source: bought: Acros CROBiosystems (cat. IT6-H82E4)
binder,measurement,setting,value
B1,Ki,[1],3.9 nM
same,Ki,[2],1.7 nM
